Kd, koff and kon data for seven molecules are collected here from patent publication US20240182547A1.

The chains are these.
B1: 12A1 (antibody, V domains shown)
VH: EVQLVESGGGLIQPGGSLRLSCAGSGFTFSSYTMHWVRQAPGKGLEWVSSITGGSSYVDYSASVKGRFTISRDNAQSSLYLQMNSLRAEDTAVYYCARDDYGSGSYSNWFDPWGQGTLVTVSS
VL: QSVLTQPPSVSGAPGQRVTISCTGSSSDIGAGYDVHWYQQLPGTAPKLLIFANTNRPSGVPDRFSGSKSGASASLAITGLQADDEADYYCQSYDRSLSHVFGTGTKVTVLG
B2: 4G1 (antibody, V domains shown)
VH: QVTLKESGGGLVKPGGSLRLSCAASGFRLSSYGMNWVRQAPGKGLEWVSSISASSSFINYADSVRDRFTISRDNAKNSLYLQMNSLRAEDTAVYYCARDDYGSGSYSNWFDPWGQGTLVTVSS
VL: QSVLTQPPSVSGAPGQRVTISCTGNSSNLGAGYDVHWYQQLPGRAPKLLIFANTNRPSGVPDRFSGSKSGASASLAITSLQADDEADYYCQSYDRSLSHVFGTGTKVTVLG
B3: 2H1 (antibody, V domains shown)
VH: QVTLKESGGGVVQSGRSLRLSCAASGFTFSSYTMHWVRQAPGKGLEWVSSITGGSSYVDYSASVKGRFTISRDNAQSSLYLQMNSLRAEDTAVYYCARDDYGSGSYSNWFDPWGQGTLVTVSS
VL: QSVLTQPPSVSGAPGQRVTISCTGSSSNIGAGYDVHWYQQLPGRAPKLLIYANTNRPSGVADRFSGSKSGASASLAITGLQADDEADYYCQSYDRSLSHVFGTGTKVTVLG
B4: 3H8 (antibody, V domains shown)
VH: EVQLVESGGGLVKPGGSLRLSCAGSGFTFSSYTMHWVRQAPGKGLEWVSSITGGSSYVDYSASVKGRFTISRDNAQSSLYLQMNSLRAEDTAVYYCARDDYGSGSYSNWFDPWGRGTTVTVSS
VL: QPVLTQPLSASGTPGQRVTISCTGSSSNIGAGYDVHWYQQLPGRAPKLLIFANTNRPSGVPDRFSGSKSGTSASLAITGLQAEDEADYYCQSYDRSLSHVFGTGTKVTVLG
B5: 12B11 (antibody, V domains shown)
VH: EVQLVESGGGVVQPGRSLRLACAASGFTFNSYAMHWVRQAPGKGLEWVSSITGGSSYVDYSASVKGRFTISRDNAQSSLYLQMNSLRAEDTAVYYCARDMYGLGSYYSPNYFDPWGQGTLVTVSS
VL: SYELTQPPSVSGAPGQRVTISCTGSSSNIGAGYDVHWYQQLPGRAPKLLIFANTNRPSGVPDRFSGSKSGTSASLAITGLQAEDEADYYCQSYDSSLSYVFGTGTKVTVLG
B6: #12m (antibody, V domains shown)
VH: EVQLVESGGGLVKPGGSLRLSCAGSGFAFSSYTMHWVRQAPGKGLEWVSSITGGSSYLDYAHSVKGRFTISRDNGQNSLFLQMNSLRTEDTAVYYCARDDYGSGSYSNYFDPWGQGTLVTVSS
VL: QSVLTQPPSVSGAPGQRVTISCTGSSSNIGAGYDVHWYQQVPGTAPKLLIFGSTNRPSGVPDRFSGSKSGASASLAITGLQTEDEADYYCQSYDRSLSHVFGTGTKVTVLG
B7: 10E7 (antibody, V domains shown)
VH: EVQLVESGGGLVKPGGSLRLSCAASGFTFTSYRMHWVRQAPGKGLEWVSSITGGGNYIEYADSVKGRFTISRDNAKNSLDLQMNSLRAEDTAIYYCARDMYGLGSYYSPNYFDSWGQGTLVTVSS
VL: QSVLTQPPSVSGAPGQRVTISCTGSSSNIGAGYDVHWYQQLPGRAPKLLIFANTNRPSGVPDRFSGSKSGASASLAITGLQADDEADYYCQSYDRSLSHVFGTGTKVTVLG

The target in the assay is recombinant F-protein (respiratory syncytial virus (RSV)) (UniProt P03420). Put plainly: SPR Biacore T-200, antibody captured on protein A chip, F-protein as analyte. On the technique in general: In SPR one partner is held on a chip, and binding of the other changes the refractive index at the surface.
Chain of recombinant F-protein (respiratory syncytial virus (RSV)) (P03420 whole entry): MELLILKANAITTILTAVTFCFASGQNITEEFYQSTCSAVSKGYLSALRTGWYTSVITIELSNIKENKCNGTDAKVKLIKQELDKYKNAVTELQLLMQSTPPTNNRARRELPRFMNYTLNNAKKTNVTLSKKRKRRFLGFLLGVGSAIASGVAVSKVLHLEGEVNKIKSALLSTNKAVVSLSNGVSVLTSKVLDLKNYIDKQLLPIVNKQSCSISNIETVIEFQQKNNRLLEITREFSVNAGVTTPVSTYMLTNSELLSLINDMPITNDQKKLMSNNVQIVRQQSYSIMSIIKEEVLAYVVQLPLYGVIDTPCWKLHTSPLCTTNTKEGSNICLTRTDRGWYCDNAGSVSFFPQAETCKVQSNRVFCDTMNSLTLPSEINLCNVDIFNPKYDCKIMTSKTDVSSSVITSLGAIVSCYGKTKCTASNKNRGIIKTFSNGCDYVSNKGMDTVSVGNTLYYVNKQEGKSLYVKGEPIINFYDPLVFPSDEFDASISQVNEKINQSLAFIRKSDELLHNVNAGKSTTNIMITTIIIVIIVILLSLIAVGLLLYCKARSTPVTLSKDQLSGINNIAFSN
As for B1, the Kd (in general, the free concentration of one partner at which half of the binding sites on the other are occupied at equilibrium, for simple one-to-one binding) was determined as 0.0114 nM; the koff (as a rule, the first-order rate constant of dissociation) worked out at 3.18e-05 s⁻¹; the kon (in general, the rate constant with which the complex forms) came out at 2.8e+06 M⁻¹ s⁻¹.
As for B2, the dissociation constant Kd worked out at 0.0341 nM, the koff is 6.02e-05 s⁻¹ and the kon was found to be 1.77e+06 M⁻¹ s⁻¹.
B3: the Kd was 0.00384 nM, the koff worked out at 5.74e-05 s⁻¹ and the kon was 1.5e+07 M⁻¹ s⁻¹.
In the case of B4, the Kd was found to be 0.00397 nM, the koff was 6.06e-05 s⁻¹ and the kon stood at 1.53e+07 M⁻¹ s⁻¹.
The matching figures for B5: 0.0115 nM, 2.89e-05 s⁻¹ and 2.52e+06 M⁻¹ s⁻¹.
The matching figures for B6: 0.00677 nM, 2.07e-05 s⁻¹ and 3.06e+06 M⁻¹ s⁻¹.
Take B7: the Kd came out at 0.0138 nM, the koff was determined as 2.81e-05 s⁻¹ and the kon was found to be 2.03e+06 M⁻¹ s⁻¹.
